Experimental data published in US6340743.

Molecular target: Rabbit polymeric immunoglobulin receptor (pIgR), intact, expressed in transfected MDCK cells (pWe) (rabbit) (UniProt P01832)
Test: cell-based or functional assay

Chain of UniProt P01832 (P01832 19-773): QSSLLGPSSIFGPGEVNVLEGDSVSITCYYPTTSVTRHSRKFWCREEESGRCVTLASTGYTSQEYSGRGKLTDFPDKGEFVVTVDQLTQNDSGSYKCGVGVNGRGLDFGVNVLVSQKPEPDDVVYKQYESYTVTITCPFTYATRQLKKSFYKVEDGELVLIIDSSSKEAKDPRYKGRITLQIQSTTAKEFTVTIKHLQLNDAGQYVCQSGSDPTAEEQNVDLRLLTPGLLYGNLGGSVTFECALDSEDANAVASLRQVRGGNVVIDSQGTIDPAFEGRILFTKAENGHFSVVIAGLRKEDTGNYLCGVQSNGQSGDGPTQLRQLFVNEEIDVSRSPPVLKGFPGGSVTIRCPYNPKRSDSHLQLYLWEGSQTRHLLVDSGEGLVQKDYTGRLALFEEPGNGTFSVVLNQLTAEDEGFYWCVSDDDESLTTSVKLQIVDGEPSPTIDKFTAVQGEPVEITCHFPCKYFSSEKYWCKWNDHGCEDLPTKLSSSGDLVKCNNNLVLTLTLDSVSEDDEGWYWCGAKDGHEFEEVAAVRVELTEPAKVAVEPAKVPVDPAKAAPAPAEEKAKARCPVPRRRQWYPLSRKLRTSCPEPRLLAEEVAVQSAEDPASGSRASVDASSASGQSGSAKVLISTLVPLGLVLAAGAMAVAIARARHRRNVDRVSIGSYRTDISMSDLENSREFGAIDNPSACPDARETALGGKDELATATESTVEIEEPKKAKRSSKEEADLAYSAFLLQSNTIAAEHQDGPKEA

## Radio-iodinated IgA (antibody)
  percent of ligand transcytosed from the apical to the basolateral surface: 5 to 6%
